Measurements from the supplement of paper PMC6757056.
± gives the standard deviation of the averaged measurements.

B1: library; a variant is named by its letters at N, in order (parent)
chain: GCUGUCACCGAGAAACUGUGAAGUAUAUCUUAAACCUGGGCACUUAAAAGAUAUAUGGAGUUAGUAGUGCAACCUGCUCGGUCUGAUGAGUCCNNNNNNGGACGAAACAGC

Tests used:
cyclic di-GMP [1] = variants of: B1; assay: normalized RNA/DNA level without ligand (relative to sTRSVctl = 100) (log10 (% of sTRSVctl)); HEK293T; ligand: cyclic di-GMP (c-di-GMP-II aptamer); higher = less ribozyme self-cleavage, higher mRNA level; conditions: reporter: mCherry (pCS4076), ligand present: no
How it was run: (§1)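 Only sequences with at least 100 DNA reads were analyzed, from HEK293T cells transfected with 4 µg per 6-well well of ribozyme switch library plasmids 72 h before RNA extraction with EDTA. Any ligand was added 1 h before transfection. RNA level was defined as RNA over DNA reads, normalized to a spiked-in non-cleaving sequence or to the top sequences, then scaled and log-transformed. The top set was 25 sequences, and the scaling was ×100 followed by log10.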

cyclic di-GMP [2] = variants of: B1; assay: normalized RNA/DNA level with ligand (relative to sTRSVctl = 100) (log10 (% of sTRSVctl)); HEK293T; ligand: cyclic di-GMP (c-di-GMP-II aptamer); ligand concentration (+) RNA-Seq: 1 mM; higher = less ribozyme self-cleavage, higher mRNA level; conditions: reporter: mCherry (pCS4076), ligand present: yes
How it was run: as §1

Variant | normalized RNA/DNA level without ligand (log10) (cyclic di-GMP [1]) | normalized RNA/DNA level with ligand (log10) (cyclic di-GMP [2])
AAGCGU | 1.56 ± 0.021 | 1.73 ± 0.11
AAGCGC | 1.669 ± 0.011 | 1.84 ± 0.13
AAGCGG | 1.81 ± 0.035 | 1.88 ± 0.069
GAGCCG | 1.823 ± 0.0091 | 1.9 ± 0.11
GAGCCC | 1.81 ± 0.1 | 1.92 ± 0.16
GAGCCA | 1.79 ± 0.051 | 1.87 ± 0.1
CAGCUC | 1.7753 ± 0.00068 | 1.87 ± 0.099
CAGGAU | 1.64 ± 0.094 | 1.78 ± 0.068
CAGGAC | 1.715 ± 0.017 | 1.81 ± 0.1
CAGGAG | 1.64 ± 0.091 | 1.79 ± 0.098
AAGCAG | 1.79 ± 0.081 | 1.9 ± 0.11
AAGCAU | 1.655 ± 0.0071 | 1.82 ± 0.1
GAGGCG | 1.817 ± 0.018 | 1.9 ± 0.14
GAGGCU | 1.83 ± 0.046 | 1.87 ± 0.068
GAGGCC | 1.7859 ± 0.0011 | 1.89 ± 0.048
GAGGCA | 1.81 ± 0.039 | 1.86 ± 0.089
AAGCCG | 1.732 ± 0.0043 | 1.82 ± 0.069
UAGCCA | 1.71 ± 0.04 | 1.86 ± 0.1
UAGCCG | 1.79 ± 0.063 | 1.93 ± 0.12
UAGCCU | 1.73 ± 0.03 | 1.86 ± 0.043
UAGCUG | 1.74 ± 0.038 | 1.86 ± 0.084
UAGCUU | 1.68 ± 0.055 | 1.81 ± 0.073
UAGCUA | 1.71 ± 0.038 | 1.82 ± 0.12
UAGCUC | 1.75 ± 0.022 | 1.89 ± 0.1

Variant | normalized RNA/DNA level without ligand (log10) (cyclic di-GMP [1]) | normalized RNA/DNA level with ligand (log10) (cyclic di-GMP [2])
CAGUCU | 1.52 ± 0.048 | 1.68 ± 0.12
CAGUCA | 1.41 ± 0.1 | 1.52 ± 0.13
CAGUCG | 1.76 ± 0.067 | 1.9 ± 0.12
CAGUAC | 1.6 ± 0.018 | 1.74 ± 0.14
CAGUAG | 1.724 ± 0.013 | 1.83 ± 0.096
UAGGAC | 1.528 ± 0.015 | 1.73 ± 0.082
UAGGAG | 1.59 ± 0.05 | 1.76 ± 0.13
UAGGAU | 1.58 ± 0.049 | 1.76 ± 0.078
GAGGUG | 1.74 ± 0.049 | 1.84 ± 0.087
GAGGUA | 1.698 ± 0.0042 | 1.77 ± 0.1
GAGGUC | 1.68 ± 0.042 | 1.82 ± 0.11
GAGGUU | 1.73 ± 0.072 | 1.85 ± 0.083
AAGGAU | 1.49 ± 0.097 | 1.7 ± 0.096
AAGGAC | 1.53 ± 0.1 | 1.73 ± 0.072
AAGGAG | 1.54 ± 0.14 | 1.67 ± 0.053
AAGCUU | 1.7 ± 0.022 | 1.84 ± 0.073
AAGCUG | 1.64 ± 0.019 | 1.79 ± 0.076
AAGCUC | 1.74 ± 0.012 | 1.89 ± 0.13
AAGCUA | 1.56 ± 0.024 | 1.72 ± 0.12
AAGGGC | 1.61 ± 0.027 | 1.75 ± 0.13
UAGGCC | 1.819 ± 0.0024 | 1.9 ± 0.095
UAGGCA | 1.68 ± 0.072 | 1.84 ± 0.13
UAGGCG | 1.768 ± 0.013 | 1.87 ± 0.12
UAGUCG | 1.8 ± 0.021 | 1.91 ± 0.14

Variant | normalized RNA/DNA level without ligand (log10) (cyclic di-GMP [1]) | normalized RNA/DNA level with ligand (log10) (cyclic di-GMP [2])
UAGUCA | 1.768 ± 0.017 | 1.91 ± 0.076
UAGCAU | 1.653 ± 0.0034 | 1.8 ± 0.11
UAGCAG | 1.82 ± 0.032 | 1.85 ± 0.032
CAGGCU | 1.8 ± 0.012 | 1.9 ± 0.11
CAGGCA | 1.615 ± 0.0084 | 1.71 ± 0.13
CAGGCG | 1.75 ± 0.091 | 1.88 ± 0.13
UAGGUG | 1.58 ± 0.068 | 1.77 ± 0.093
UAGGUU | 1.67 ± 0.051 | 1.82 ± 0.11
UAGGUA | 1.55 ± 0.018 | 1.72 ± 0.05
UAGGUC | 1.64 ± 0.032 | 1.81 ± 0.12
CAGCCU | 1.59 ± 0.055 | 1.79 ± 0.12
CAGCCG | 1.847 ± 0.0028 | 1.9 ± 0.074
GAGCAU | 1.83 ± 0.037 | 1.91 ± 0.11
CAGGGG | 1.63 ± 0.032 | 1.74 ± 0.075
CAGGGC | 1.73 ± 0.044 | 1.86 ± 0.16
CAGGGA | 1.53 ± 0.13 | 1.67 ± 0.067
CAGGGU | 1.673 ± 0.014 | 1.82 ± 0.096
GAGGAG | 1.752 ± 0.014 | 1.82 ± 0.081
GAGGAA | 1.6 ± 0.055 | 1.72 ± 0.092
GAGGAC | 1.67 ± 0.053 | 1.79 ± 0.11
GAGGAU | 1.66 ± 0.022 | 1.77 ± 0.13
GAGUAC | 1.8 ± 0.059 | 1.87 ± 0.11
GAGUAU | 1.79 ± 0.024 | 1.86 ± 0.099
AAGUAU | 1.62 ± 0.032 | 1.8 ± 0.095

Variant | normalized RNA/DNA level without ligand (log10) (cyclic di-GMP [1]) | normalized RNA/DNA level with ligand (log10) (cyclic di-GMP [2])
AAGUAC | 1.657 ± 0.007 | 1.8 ± 0.14
AAGUAA | 1.45 ± 0.12 | 1.63 ± 0.089
AAGUAG | 1.68 ± 0.024 | 1.77 ± 0.12
AAGGUC | 1.61 ± 0.034 | 1.75 ± 0.077
CAGCAG | 1.79 ± 0.028 | 1.85 ± 0.12
CAGCAU | 1.56 ± 0.1 | 1.72 ± 0.075
GAGCUC | 1.83 ± 0.052 | 1.91 ± 0.15
GAGCUA | 1.79 ± 0.038 | 1.88 ± 0.11
GAGCUU | 1.8 ± 0.045 | 1.9 ± 0.14
GAGUCC | 1.8 ± 0.043 | 1.88 ± 0.064
GAGUCA | 1.82 ± 0.021 | 1.9 ± 0.085
GAGUCU | 1.8 ± 0.07 | 1.85 ± 0.076
GAGUCG | 1.83 ± 0.031 | 1.88 ± 0.092
UAGCGA | 1.61 ± 0.053 | 1.76 ± 0.095
UAGCGC | 1.76 ± 0.019 | 1.88 ± 0.036
UAGCGU | 1.59 ± 0.056 | 1.72 ± 0.1
UAGCGG | 1.8203 ± 0.00054 | 1.95 ± 0.067
GAGCGA | 1.735 ± 0.0089 | 1.85 ± 0.085
GAGCGG | 1.88 ± 0.079 | 1.96 ± 0.096
CAGGUC | 1.76 ± 0.021 | 1.84 ± 0.094
CAGGUA | 1.57 ± 0.081 | 1.67 ± 0.11
CAGGUG | 1.62 ± 0.056 | 1.76 ± 0.084
CAGGUU | 1.798 ± 0.0047 | 1.88 ± 0.053
AAGGCC | 1.759 ± 0.0039 | 1.83 ± 0.083

Variant | normalized RNA/DNA level without ligand (log10) (cyclic di-GMP [1]) | normalized RNA/DNA level with ligand (log10) (cyclic di-GMP [2])
AAGGCU | 1.71 ± 0.088 | 1.83 ± 0.22
AAGGCA | 1.63 ± 0.05 | 1.71 ± 0.096
AAGGCG | 1.728 ± 0.012 | 1.83 ± 0.091
GAGGGA | 1.65 ± 0.027 | 1.74 ± 0.083
GAGGGG | 1.77 ± 0.056 | 1.86 ± 0.1
GAGGGU | 1.71 ± 0.024 | 1.75 ± 0.14
GAGGGC | 1.66 ± 0.057 | 1.82 ± 0.077
UAGGGG | 1.563 ± 0.0094 | 1.72 ± 0.079
UAGGGC | 1.64 ± 0.035 | 1.78 ± 0.1
CAGCGU | 1.701 ± 0.011 | 1.84 ± 0.088
CAGCGA | 1.49 ± 0.1 | 1.7 ± 0.055
CAGCGC | 1.731 ± 0.013 | 1.87 ± 0.15
CAGCGG | 1.78 ± 0.032 | 1.9 ± 0.14
UAGUAG | 1.7 ± 0.036 | 1.84 ± 0.1
UAGUAA | 1.652 ± 0.0068 | 1.8 ± 0.12
UAGUAC | 1.68 ± 0.037 | 1.8 ± 0.12
AAGUCC | 1.76 ± 0.051 | 1.84 ± 0.085
AAGUCG | 1.62 ± 0.031 | 1.79 ± 0.089
AAGUCA | 1.63 ± 0.06 | 1.77 ± 0.14
AAGUCU | 1.68 ± 0.058 | 1.8 ± 0.12
